Assay [1] has as its target T1, recombinant HDMX (amino acids 1-490 of SEQ ID NO:104) (Homo sapiens, UniProt O15151).
T1 construct: thioredoxin (N, cleaved yes); S tag (N, cleaved yes); hexahistidine (N, cleaved yes); made in house; host or cells: E. coli (inferred: pET32-LIC vector, handled as described for HDM2 in BL21(DE3))
T1 sequence (O15151 1-490): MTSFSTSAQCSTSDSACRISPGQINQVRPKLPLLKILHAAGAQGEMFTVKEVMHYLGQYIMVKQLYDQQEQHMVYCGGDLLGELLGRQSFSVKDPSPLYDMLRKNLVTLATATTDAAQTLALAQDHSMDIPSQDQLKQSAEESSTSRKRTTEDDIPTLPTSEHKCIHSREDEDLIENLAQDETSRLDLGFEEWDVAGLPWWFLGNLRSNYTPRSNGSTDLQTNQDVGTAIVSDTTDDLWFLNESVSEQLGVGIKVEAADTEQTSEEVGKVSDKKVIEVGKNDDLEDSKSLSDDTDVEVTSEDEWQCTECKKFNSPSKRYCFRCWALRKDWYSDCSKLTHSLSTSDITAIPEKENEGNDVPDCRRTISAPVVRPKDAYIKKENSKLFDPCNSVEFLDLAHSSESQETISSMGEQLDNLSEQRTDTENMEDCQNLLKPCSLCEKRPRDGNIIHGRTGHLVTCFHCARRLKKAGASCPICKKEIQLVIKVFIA
The experiment in a line: Competitive streptavidin pull-down of biotinylated peptides with 1:1 recombinant HDM2/HDMX mixture, HDMX western. The format is binding. Conditions: biotinylated stapled peptide, 1:1 mixture of recombinant HDM2 and HDMX.

The target in assay [2] is T2, recombinant HDM2 (amino acids 17-125 of SEQ ID NO:103) (Homo sapiens, UniProt Q00987).
T2 construct: hexahistidine (N); thrombin cleavage site (N); made in house; host or cells: BL21(DE3) E. coli
The experiment in a line: Competitive streptavidin pull-down of biotinylated peptides with 1:1 recombinant HDM2/HDMX mixture, HDM2 western. The assay is classed as binding. As to conditions: biotinylated stapled peptide, 1:1 mixture of recombinant HDM2 and HDMX. The protocol: For these studies, biotinylated peptides were incubated with a 1:1 mixture of recombinant HDM2 (amino acids 17-125 of SEQ ID NO: 103) and HDMX (amino acids 1-490 of SEQ ID NO: 104), followed by streptavidin pull-down and HDM2 and HDMX Western analyses. […] .

Assay [3] addresses T3, recombinant HDM2 (amino acids 17-125 of SEQ ID NO:103) (human, UniProt Q00987 17-125).
T3 construct: also called MDM2; not shown: thrombin cleavage site (pET28a vector)
Put plainly: streptavidin pull-down of biotinylated peptide with recombinant HDM2 and HDMX (1:1 mixture per paragraph 301), western blot. On the technique in general: Immunoblotting shows a protein as a band on a membrane.

Entries after “also recorded” stand apart in the source; their conditions may differ. Bridges are numbered along the chain shown (N, C = ends). Where no end group is shown, it is not given here. [ ]: non-standard residue; d: D form. The star is where a group is joined. Biotin = O=C1N[C@H]2[C@H](CS[C@H]2CCCCC(=O)*)N1; R8 = C=CCCCCCC[C@@](C)(N)C(=O)O; S5 = C=CCCC[C@](C)(N)C(=O)O

For the molecule “ATSP-7041 B26I (Biotin-LTF[R8]EYWAQI[S5]SAA-NH2; staple 4-11; SMILES CC[C@H](C)[C@@H]1NC(=O)[C@H](CCC(N)=O)NC(=O)[C@H](C)NC(=O)[C@H](Cc2c[nH]c3ccccc23)NC(=O)[C@H](Cc2ccc(O)cc2)NC(=O)[C@H](CCC(=O)O)NC(=O)[C@](C)(NC(=O)[C@H](Cc2ccccc2)NC(=O)[C@@H](NC(=O)[C@H](CC(C)C)NC(=O)CCCC[C@@H]2SC[C@@H]3NC(=O)N[C@@H]32)[C@@H](C)O)CCCCCCC=CCCC[C@@](C)(C(=O)N[C@@H](CO)C(=O)N[C@@H](C)C(=O)N[C@@H](C)C(N)=O)NC1=O)”, the “HDMX versus HDM2 binding selectivity” value was “dual HDM2/HDXM-targeting activity” in assay [1]; “dual-selectivity to HDMX and HDM2” in assay [1] (listed as SEQ ID NO:63). The HDM2 interaction entry in assay [2] was “restored HDM2 binding and bind”.

For ATSP-7041 B26L, the “HDMX versus HDM2 binding selectivity” value in assay [1] is “dual HDM2/HDXM-targeting activity”; in assay [1] (listed as SEQ ID NO:65), “dual-selectivity to HDMX and HDM2”. For the same molecule, the HDM2 interaction result in assay [2] is “restored HDM2 binding and bind”.

For “SAH-p53-4 K24E/E28A: Formula (I) stapled peptide: [Xaa]w LSQETF, [Xaa]x DLWELL, [Xaa]y AN (LSQETF[R8]DLWELL[S5]AN-NH2; staple 7-14; not fully specified (N-terminus))”, in assay [1], the HDMX interaction result is “HDMX binding” and the “HDMX versus HDM2 binding selectivity” value was “restored dual HDM2/HDMX interaction”. Also, the “HDMX versus HDM2 binding selectivity” value in assay [1] (listed as SEQ ID NO:47) is on record as “selectivity to HDM2”. Moreover, in assay [2], the HDM2 interaction entry is on record as “especially robust HDM2 interaction”.

Take “ATSP-7041 B26R (Biotin-LTF[R8]EYWAQR[S5]SAA-NH2; staple 4-11; SMILES CC(C)C[C@H](NC(=O)CCCC[C@@H]1SC[C@@H]2NC(=O)N[C@@H]21)C(=O)N[C@H](C(=O)N[C@@H](Cc1ccccc1)C(=O)N[C@]1(C)CCCCCCC=CCCC[C@@](C)(C(=O)N[C@@H](CO)C(=O)N[C@@H](C)C(=O)N[C@@H](C)C(N)=O)NC(=O)[C@H](CCCNC(=N)N)NC(=O)[C@H](CCC(N)=O)NC(=O)[C@H](C)NC(=O)[C@H](Cc2c[nH]c3ccccc23)NC(=O)[C@H](Cc2ccc(O)cc2)NC(=O)[C@H](CCC(=O)O)NC1=O)[C@@H](C)O)”: in assay [1], the HDMX interaction result was “engage HDMX with greatest affinity” and the “HDMX versus HDM2 binding selectivity” value is “HDMX selectivity over HDM2; also recorded: most HDMX-specific”. Besides, the HDM2 interaction result in assay [2] is “essentially abrogate HDM2 interaction”.

In the case of “ATSP-7041 B26A (Biotin-LTF[R8]EYWAQA[S5]SAA-NH2; staple 4-11; SMILES CC(C)C[C@H](NC(=O)CCCC[C@@H]1SC[C@@H]2NC(=O)N[C@@H]21)C(=O)N[C@H](C(=O)N[C@@H](Cc1ccccc1)C(=O)N[C@]1(C)CCCCCCC=CCCC[C@@](C)(C(=O)N[C@@H](CO)C(=O)N[C@@H](C)C(=O)N[C@@H](C)C(N)=O)NC(=O)[C@H](C)NC(=O)[C@H](CCC(N)=O)NC(=O)[C@H](C)NC(=O)[C@H](Cc2c[nH]c3ccccc23)NC(=O)[C@H](Cc2ccc(O)cc2)NC(=O)[C@H](CCC(=O)O)NC1=O)[C@@H](C)O)”, in assay [1], the HDMX interaction result is reported as “engage HDMX with greatest affinity” and the “HDMX versus HDM2 binding selectivity” value is recorded as “HDMX selectivity over HDM2; also recorded: most HDMX-specific”. For the same molecule, in assay [2], the HDM2 interaction entry was “essentially abrogate HDM2 interaction”.

B1: ATSP-7041 B26S (peptide)
peptide: Biotin-LTF[R8]EYWAQS[S5]SAA-NH2
modifications: staple 4-11
SMILES: CC(C)C[C@H](NC(=O)CCCC[C@@H]1SC[C@@H]2NC(=O)N[C@@H]21)C(=O)N[C@H](C(=O)N[C@@H](Cc1ccccc1)C(=O)N[C@]1(C)CCCCCCC=CCCC[C@@](C)(C(=O)N[C@@H](CO)C(=O)N[C@@H](C)C(=O)N[C@@H](C)C(N)=O)NC(=O)[C@H](CO)NC(=O)[C@H](CCC(N)=O)NC(=O)[C@H](C)NC(=O)[C@H](Cc2c[nH]c3ccccc23)NC(=O)[C@H](Cc2ccc(O)cc2)NC(=O)[C@H](CCC(=O)O)NC1=O)[C@@H](C)O
With B1, in assay [3], the binding result is given as “no binding”.

B2: ATSP-7041 B26T (peptide)
peptide: Biotin-LTF[R8]EYWAQT[S5]SAA-NH2
modifications: staple 4-11
SMILES: CC(C)C[C@H](NC(=O)CCCC[C@@H]1SC[C@@H]2NC(=O)N[C@@H]21)C(=O)N[C@H](C(=O)N[C@@H](Cc1ccccc1)C(=O)N[C@]1(C)CCCCCCC=CCCC[C@@](C)(C(=O)N[C@@H](CO)C(=O)N[C@@H](C)C(=O)N[C@@H](C)C(N)=O)NC(=O)[C@H]([C@@H](C)O)NC(=O)[C@H](CCC(N)=O)NC(=O)[C@H](C)NC(=O)[C@H](Cc2c[nH]c3ccccc23)NC(=O)[C@H](Cc2ccc(O)cc2)NC(=O)[C@H](CCC(=O)O)NC1=O)[C@@H](C)O
With B2, the binding result in assay [3] is listed as “no binding”.

B3: ATSP-7041 B26Y (peptide)
peptide: Biotin-LTF[R8]EYWAQY[S5]SAA-NH2
modifications: staple 4-11
SMILES: CC(C)C[C@H](NC(=O)CCCC[C@@H]1SC[C@@H]2NC(=O)N[C@@H]21)C(=O)N[C@H](C(=O)N[C@@H](Cc1ccccc1)C(=O)N[C@]1(C)CCCCCCC=CCCC[C@@](C)(C(=O)N[C@@H](CO)C(=O)N[C@@H](C)C(=O)N[C@@H](C)C(N)=O)NC(=O)[C@H](Cc2ccc(O)cc2)NC(=O)[C@H](CCC(N)=O)NC(=O)[C@H](C)NC(=O)[C@H](Cc2c[nH]c3ccccc23)NC(=O)[C@H](Cc2ccc(O)cc2)NC(=O)[C@H](CCC(=O)O)NC1=O)[C@@H](C)O
As to B3, the binding result in assay [3] is “no binding”.

B4: ATSP-7041 B26V (peptide)
peptide: Biotin-LTF[R8]EYWAQV[S5]SAA-NH2
modifications: staple 4-11
SMILES: CC(C)C[C@H](NC(=O)CCCC[C@@H]1SC[C@@H]2NC(=O)N[C@@H]21)C(=O)N[C@H](C(=O)N[C@@H](Cc1ccccc1)C(=O)N[C@]1(C)CCCCCCC=CCCC[C@@](C)(C(=O)N[C@@H](CO)C(=O)N[C@@H](C)C(=O)N[C@@H](C)C(N)=O)NC(=O)[C@H](C(C)C)NC(=O)[C@H](CCC(N)=O)NC(=O)[C@H](C)NC(=O)[C@H](Cc2c[nH]c3ccccc23)NC(=O)[C@H](Cc2ccc(O)cc2)NC(=O)[C@H](CCC(=O)O)NC1=O)[C@@H](C)O
As to B4, the binding result in assay [3] is “no binding”.

B5: ATSP-7041 B26W (peptide)
peptide: Biotin-LTF[R8]EYWAQW[S5]SAA-NH2
modifications: staple 4-11
SMILES: CC(C)C[C@H](NC(=O)CCCC[C@@H]1SC[C@@H]2NC(=O)N[C@@H]21)C(=O)N[C@H](C(=O)N[C@@H](Cc1ccccc1)C(=O)N[C@]1(C)CCCCCCC=CCCC[C@@](C)(C(=O)N[C@@H](CO)C(=O)N[C@@H](C)C(=O)N[C@@H](C)C(N)=O)NC(=O)[C@H](Cc2c[nH]c3ccccc23)NC(=O)[C@H](CCC(N)=O)NC(=O)[C@H](C)NC(=O)[C@H](Cc2c[nH]c3ccccc23)NC(=O)[C@H](Cc2ccc(O)cc2)NC(=O)[C@H](CCC(=O)O)NC1=O)[C@@H](C)O
For the molecule B5, in assay [3], the binding result is given as “no binding”.

The record behind these values is patent US20230192789A1, “STRUCTURALLY-STABILIZED AND HDMX-SELECTIVE P53 PEPTIDES AND USES THEREOF” (Dana-Farber Cancer Institute, Inc., priority 2020, published 2023).
